± gives the standard deviation of the averaged measurements.
Assay: total protein half-life in vivo (active degradation + dilution); higher = more stable protein
[1] = E. coli NCM3722 delta-clpP delta-lon delta-hslV, growth: N-lim chemostat, doubling time 6 h
[2] = wild type E. coli NCM3722, growth: C-lim chemostat, doubling time 3 h
[3] = wild type E. coli NCM3722, growth: C-lim chemostat, doubling time 12 h
[4] = wild type E. coli NCM3722, growth: N-lim chemostat, doubling time 12 h
[5] = wild type E. coli NCM3722, growth: P-lim chemostat, doubling time 6 h
[6] = E. coli NCM3722 delta-clpP, growth: N-lim chemostat, doubling time 6 h
[7] = E. coli NCM3722 delta-hslV, growth: N-lim chemostat, doubling time 6 h
[8] = E. coli NCM3722 delta-lon, growth: N-lim chemostat, doubling time 6 h
[9] = E. coli NCM3722 delta-smpB, growth: N-lim chemostat, doubling time 6 h
[10] = wild type E. coli NCM3722, growth: C-lim chemostat, doubling time 6 h
[11] = wild type E. coli NCM3722, growth: N-lim chemostat, doubling time 6 h
[12] = wild type E. coli NCM3722, growth: P-lim chemostat, doubling time 12 h

Row | Sequence | total protein half-life in vivo [1] [h] | total protein half-life in vivo [2] [h] | total protein half-life in vivo [3] [h] | total protein half-life in vivo [4] [h] | total protein half-life in vivo [5] [h] | total protein half-life in vivo [6] [h] | total protein half-life in vivo [7] [h] | total protein half-life in vivo [8] [h] | total protein half-life in vivo [9] [h] | total protein half-life in vivo [10] [h] | total protein half-life in vivo [11] [h] | total protein half-life in vivo [12] [h]
1 | MNNHATVQSSAPVSAAPLLQVSGALIAIIALILAAAWLVKRLGFAPKRTGVNGLKISASASLGARERVVVVDVEDARLVLGVTAGQINLLHKLPPSAPTEEIPQTDFQSVMKNLLKRSGRS | > 8 | > 4 | 8.29 | 1.64 | – | – | – | – | – | – | – | –
2 | MSLAKASLWTAASTLVKIGAGLLVGKLLAVSFGPAGLGLAANFRQLITVLGVLAGAGIFNGVTKYVAQYHDNPQQLRRVVGTSSAMVLGFSTLMALVFVLAAAPISQGLFGNTDYQGLVRLVALVQMGIAWGNLLLALMKGFRDAAGNALSLIVGSLIGVLAYYVSYRLGGYEGALLGLALIPALVVIPAAIMLIKRGVIPLSYLKPSWDNGLAGQLSKFTLMALITSVTLPVAYIMMRKLLAAQYSWDEVGIWQGVSSISDAYLQFITASFSVYLLPTLSRLTEKRDITREVVKSLKFVLPAVAAASFTVWLLRDFAIWLLLSNKFTAMRDLFAWQLVGDVLKVGAYVFGYLVIAKASLRFYILAEVSQFTLLMVFAHWLIPAHGALGAAQAYMATYIVYFSLCCGVFLLWRRRA [P0AAA7] | – | – | – | – | 5.48 | – | – | – | – | – | – | –
3 | MEMYFKRMKDEWTGLVEQADPPIRAKAAEIAVAHAHYLSIEFYRIVRIDPHAEEFLSNEQVERQLKSAMERWIINVLSAQVDDVERLIQIQHTVAEVHARIGIPVEIVEMGFRVLKKILYPVIFSSDYSAAEKLQVYHFSINSIDIAMEVMTRAFTFSDSSASKEDENYRIFSLLENAEEEKERQIASILSWEIDIIYKILLDSDLGSSLPLSQADFGLWFNHKGRHYFSGIAEVGHISRLIQDFDGIFNQTMRNTRNLNNRSLRVKFLLQIRNTVSQIITLLRELFEEVSRHEVGMDVLTKLLNRRFLPTIFKREIAHANRTGTPLSVLIIDVDKFKEINDTWGHNTGDEILRKVSQAFYDNVRSSDYVFRYGGDEFIIVLTEASENETLRTAERIRSRVEKTKLKAANGEDIALSLSIGAAMFNGHPDYERLIQIADEALYIAKRRGRNRVELWKASL [P0AA89] | 6.71 ± 1.4 | 1.66 ± 0.26 | 4.49 ± 0.37 | 4.83 ± 0.27 | 1.49 ± 0.32 | 3.48 ± 0.94 | 2.854 ± 0.0076 | 4.26 ± 0.88 | 2.81 ± 0.03 | 3.16 ± 0.017 | 3.21 ± 0.42 | 3.09 ± 0.069
4 | MPVLHNRISNDALKAKMLAESEPRTTISFYKYFHIADPKATRDALYQLFTALNVFGRVYLAHEGINAQISVPASNVETFRAQLYAFDPALEGLRLNIALDDDGKSFWVLRMKVRDRIVADGIDDPHFDASNVGEYLQAAEVNAMLDDPDALFIDMRNHYEYEVGHFENALEIPADTFREQLPKAVEMMQAHKDKKIVMYCTGGIRCEKASAWMKHNGFNKVWHIEGGIIEYARKAREQGLPVRFIGKNFVFDERMGERISDEIIAHCHQCGAPCDSHTNCKNDGCHLLFIQCPVCAEKYKGCCSEICCEESALPPEEQRRRRAGRENGNKIFNKSRGRLNTTLCIPDPTE | 5.01 ± 0.67 | 0.343 ± 0.0081 | 0.65 | 0.808 | 0.402 ± 0.34 | 0.746 ± 0.024 | 0.396 | 0.483 | 0.56 | 0.308 | – | 1.16 ± 1.1
5 | MKPQVYHVDAFTSQPFRGNSAGVVFPADNLSEAQMQLIARELGHSETAFLLHSDDSDVRIRYFTPTVEVPICGHATVAAHYVRAKVLGLGNCTIWQTSLAGKHRVTIEKHNDDYRISLEQGTPGFEPPLEGETRAAIINALHLTEDDILPGLPIQVATTGHSKVMIPLKPEVDIDALSPDLNALTAISKKIGCNGFFPFQIRPGKNETDGRMFSPAIGIVEDPVTGNANGPMGAWLVHHNVLPHDGNVLRVKGHQGRALGRDGMIEVTVTIRDNQPEKVTISGTAVILFHAEWAIEL | > 8 | – | – | – | – | 4.73 | – | – | 6.56 | – | – | –
6 | MTKKKAHKPGSATIALNKRARHEYFIEEEFEAGLALQGWEVKSLRAGKANISDSYVLLRDGEAFLFGANITPMAVASTHVVCDPTRTRKLLLNQRELDSLYGRVNREGYTVVALSLYWKNAWCKVKIGVAKGKKQHDKRSDIKEREWQVDKARIMKNAHR [P0A832] | 6.34 ± 0.4 | 3.07 ± 0.46 | 13.1 ± 0.6 | – | 5.73 ± 0.2 | 6.17 ± 1.2 | 6.55 ± 0.43 | – | – | – | 5.94 ± 0.25 | 11.7 ± 0.31
7 | MPGKIAVEVAYALPEKQYLQRVTLQEGATVEEAIRASGLLELRTDIDLTKNKVGIYSRPAKLSDSVHDGDRVEIYRPLIADPKELRRQRAEKSANK | 5.54 ± 0.24 | 2.87 | 6.3 ± 3.5 | 5.54 | 5.31 | 5.02 ± 0.35 | 3.33 | 4.06 | 2.89 ± 0.05 | 5.02 ± 0.71 | 3.34 ± 0.09 | 8.44 ± 1
